Measurements as given in the supplement of paper PMC10724198.
± gives the standard deviation of the averaged measurements.

What was measured:
[1] = system: Saccharomyces cerevisiae; experiment: protein stability index of tFT-peptide fusion (C-terminal peptide) (PSI (0-1 scale)); higher = more stable (slower turnover)
Method: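 MPS profiling in S. cerevisiae of the tFT-X12 degron library: putative degron peptides plus stable controls, 12 aa, fused to the C-terminus of a sfGFP-mCherry timer. Cells are FACS-sorted into 8 mCherry/sfGFP bins and deep-sequenced. PSI runs from 0 (unstable) to 1 (stable). Backgrounds are wild type, das1Δ and doa10Δ at 30 °C, and wild type, das1Δ, cdc34-1 and cdc53-1 at 37 °C; 2-3 technical replicates each.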

[2] = system: Saccharomyces cerevisiae; experiment: as above; conditions: genetic background: wild type; temperature: 30 C
[3] = genetic background: cdc34-1, temperature: 37 C
[4] = genetic background: cdc53-1, temperature: 37 C
[5] = genetic background: das1 deletion, temperature: 30 C
[6] = genetic background: das1 deletion, temperature: 37 C
[7] = genetic background: doa10 deletion, temperature: 30 C
[8] = genetic background: wild type, temperature: 30 C
[9] = genetic background: wild type, temperature: 37 C
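Note: PSI is a weighted mean of sequencing reads over stability bins, variants kept only with over 10 reads, mCherry proximal and sfGFP distal, peptide attached via GGGS linker.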

Sequence | protein stability index [1, 3] | protein stability index [1, 4] | protein stability index [1, 5] | protein stability index [1, 6] | protein stability index [1, 7] | protein stability index [1, 8] | protein stability index [1, 9] | protein stability index [2]
VVGFVFSCWWSW | 0.433 ± 0.031 | 0.4646 ± 0.00097 | 0.367 ± 0.039 | 0.506 ± 0.013 | 0.365 ± 0.015 | 0.372 ± 0.045 | 0.46 ± 0.014 | 0.5003 ± 0.0031
RPIFAYRPLRFL | 0.656 ± 0.047 | 0.757 ± 0.001 | 0.654 ± 0.014 | 0.763 ± 0.023 | 0.212 ± 0.0076 | 0.231 ± 0.04 | 0.503 ± 0.015 | 0.342 ± 0.053
LGATYSVQLYVS | 0.336 ± 0.044 | 0.577 ± 0.022 | 0.539 ± 0.038 | 0.621 ± 0.013 | 0.0746 ± 0.012 | 0.0832 ± 0.015 | 0.0856 ± 0.005 | 0.131 ± 0.0029
RVGALLAVTCPA | 0.435 ± 0.035 | 0.47214 ± 0.00033 | 0.308 ± 0.025 | 0.5127 ± 0.0033 | 0.262 ± 0.0067 | 0.302 ± 0.036 | 0.4766 ± 0.0026 | 0.446 ± 0.0093
SRGKMTIVSNQI | 0.6525 ± 0.00094 | 0.734 ± 0.011 | 0.652 ± 0.021 | 0.7389 ± 0.0072 | 0.642 ± 0.011 | 0.669 ± 0.016 | 0.704 ± 0.028 | 0.574 ± 0.15
LLLPSAPFLFLL | 0.305 ± 0.015 | 0.256 ± 0.0043 | 0.307 ± 0.041 | 0.435 ± 0.029 | 0.3387 ± 0.0022 | 0.201 ± 0.017 | 0.288 ± 0.014 | 0.2954 ± 0.0012
SVFCSLFLFLFY | 0.477 ± 0.025 | 0.5013 ± 0.0034 | 0.4 ± 0.032 | 0.5568 ± 0.0013 | 0.414 ± 0.026 | 0.388 ± 0.01 | 0.517 ± 0.026 | 0.422 ± 0.037
GMMLLRFIIRWY | 0.0773 ± 0.026 | 0.15 ± 0.027 | 0.141 ± 0.04 | 0.268 ± 0.0083 | 0.138 ± 0.0027 | 0.134 ± 0.03 | 0.212 ± 0.0061 | 0.173 ± 0.045
RVLILCLFFRWS | 0.2532 ± 0.00072 | 0.404 ± 0.0096 | 0.274 ± 0.033 | 0.435 ± 0.0084 | 0.257 ± 0.0049 | 0.279 ± 0.029 | 0.397 ± 0.016 | 0.347 ± 0.18
FFVYRFFSLSVC | 0.146 ± 0.0021 | 0.209 ± 0.0047 | 0.13 ± 0.032 | 0.247 ± 0.0028 | 0.0301 ± 0.0028 | 0.0256 ± 0.0079 | 0.0647 ± 0.011 | 0.07222 ± 0.00031
GFSSRWLMQYMV | 0.585 ± 0.05 | 0.737 ± 0.0088 | 0.665 ± 0.021 | 0.747 ± 0.0094 | 0.326 ± 0.014 | 0.375 ± 0.11 | 0.462 ± 0.042 | 0.369 ± 0.0081
ILISVNRVVLYC | 0.364 ± 0.016 | 0.4123 ± 0.0011 | 0.289 ± 0.027 | 0.461 ± 0.011 | 0.115 ± 0.014 | 0.14 ± 0.017 | 0.1901 ± 0.00075 | 0.2171 ± 0.00013
QVGRPRVGFSRR | 0.704 ± 0.035 | 0.7483 ± 1.4e-05 | 0.652 ± 0.0075 | 0.75 ± 0.016 | 0.657 ± 0.016 | 0.66 ± 0.02 | 0.7302 ± 0.0063 | 0.764 ± 0.014
HILRLVYFIVYE | 0.402 ± 0.01 | 0.533 ± 0.028 | 0.316 ± 0.044 | 0.504 ± 0.0089 | 0.264 ± 0.01 | 0.293 ± 0.015 | 0.554 ± 0.017 | 0.4189 ± 0.003
YSCFFFLFSFFF | 0.498 ± 0.023 | 0.56 ± 0.016 | 0.429 ± 0.027 | 0.5552 ± 0.0024 | 0.423 ± 0.022 | 0.406 ± 0.0031 | 0.50243 ± 1.8e-05 | 0.4853 ± 0.0041
FPFHSRPCLPVL | 0.567 ± 0.0099 | 0.576 ± 0.11 | 0.475 ± 0.025 | 0.622 ± 0.041 | 0.4581 ± 0.0044 | 0.471 ± 0.012 | 0.5723 ± 0.0015 | 0.518 ± 0.056
